From paper PMC6120983, “Chimeric Proteins Containing MAP-1 and Functional Domains of C4b-Binding Protein Reveal Strong Complement Inhibitory Capacities” (Frontiers in Immunology, 2018)
Where two headings read alike, the source gives them in different places. Blank lines part the entries; values can stand above or below the molecule they belong to.

B2: C4BP^1−5:MAP-1 (other)
chain: NCGPPPTLSFAAPMDITLTETRFKTGTTLKYTCLPGYVRSHSTQTLTCNSDGEWVYNTFCIYKRCRHPGELRNGQVEIKTDLSFGSQIEFSCSEGFFLIGSTTSRCEVQDRGVGWSHPLPQCEIVKCKPPPDIRNGRHSGEENFYAYGFSVTYSCDPRFSLLGHASISCTVENETIGVWRPSPPTCEKITCRKPDVSHGEMVSGFGPIYNYKDTIVFKCQKGFVLRGSSVIHCDADSKWNPSPPACEPNSCINLPDIPHASWETYPRPTKEDVYVVGTVLRYRCHPGYKPTTDEPTTVICQKNLRWTPYQGCEAHTVELNNMFGQIQSPGYPDSYPSDSEVTWNITVPDGFRIKLYFMHFNLESSYLCEYDYVKVETEDQVLATFCGRETTDTEQTPGQEVVLSPGSFMSITFRSDFSNEERFTGFDAHYMAVDVDECKEREDEELSCDHYCHNYIGGYYCSCRFGYILHTDNRTCRVECSDNLFTQRTGVITSPDFPNPYPKSSECLYTIELEEGFMVNLQFEDIFDIEDHPEVPCPYDYIKIKVGPKVLGPFCGEKAPEPISTQSHSVLILFHSDNSGENRGWRLSYRAAGNECPELQPPVHGKIEPSQAKYFFKDQVLVSCDTGYKVLKDNVEMDTFQIECLKDGTWSNKIPTCKKNEIDLESELKSEQVTE

Experiments:
recombinant MBL [1] = biological target: T1, recombinant MBL (UniProt P11226 21-248); assay: ELISA; rMBL or rCL-11 (2 μg/ml) held on mannan-coated wells; serial dilutions of the proteins from 13.5 nM in TBS/Tween/Ca^2+ (5 mM CaCl2), 2 h; detected with biotinylated anti-MASP-1/-3/MAP-1 mAb 8B3; Kd = concentration at half of the maximum binding, fit specific binding with Hill slope, Bmax shared
recombinant CL-11 = biological target: T2, recombinant CL-11 (UniProt Q9BWP8 26-271); assay: as above
T2 construct: collectin-11 (CL-11, CL-K1); Held on mannan-coated wells in the ELISA; also called rCL-11; collectin-11; source: produced in house

recombinant MBL [2] = biological target: T1, recombinant MBL
MAP-1:C4BP^1−5 (human) = MAP-1:C4BP^1−5 (human) (UniProt P48740); assay: SEC; 50 μg on Superdex 200 HR 10/30, 0.5 ml/min, TBS/Ca^2+ (5 mM CaCl2); fractions checked by sandwich ELISA (anti-C4BP capture, anti-MAP-1 detection)
recombinant MBL [3] = biological target: T1, recombinant MBL; assay: cell-based or functional assay
C4BP^1−5:MAP-1 = biological target: B2; assay: SEC; 50 μg on Superdex 200 HR 10/30, 0.5 ml/min, TBS/Ca^2+ (5 mM CaCl2); fractions checked by sandwich ELISA (anti-C4BP capture, anti-MAP-1 detection); details: both partners purified

T1 sequence (P11226 21-248): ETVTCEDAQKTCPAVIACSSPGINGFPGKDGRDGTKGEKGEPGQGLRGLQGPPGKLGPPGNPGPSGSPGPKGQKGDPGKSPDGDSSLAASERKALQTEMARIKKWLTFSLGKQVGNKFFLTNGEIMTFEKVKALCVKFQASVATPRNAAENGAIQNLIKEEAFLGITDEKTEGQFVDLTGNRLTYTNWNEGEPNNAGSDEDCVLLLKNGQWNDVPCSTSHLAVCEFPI
T2 sequence (Q9BWP8 26-271): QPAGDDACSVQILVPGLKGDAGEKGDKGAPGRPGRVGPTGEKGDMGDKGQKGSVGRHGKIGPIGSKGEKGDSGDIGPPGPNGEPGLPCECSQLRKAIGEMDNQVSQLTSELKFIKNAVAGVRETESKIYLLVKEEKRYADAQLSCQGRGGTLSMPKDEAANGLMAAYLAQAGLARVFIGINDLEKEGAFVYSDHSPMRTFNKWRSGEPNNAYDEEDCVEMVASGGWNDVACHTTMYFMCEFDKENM

Molecule: B2
Kd (recombinant MBL [1]; both partners purified): 0.56 nM | IC50 of C3 deposition (ELISA; inhibitor pre-incubated on mannan-bound rMBL, then 2% MBL defect serum) (recombinant MBL [3]): 7.72 nM | IC50 of C4 deposition (ELISA; inhibitor pre-incubated on mannan-bound rMBL, then 2% MBL defect serum) (recombinant MBL [3]): 1.2 nM | IC50 of TCC deposition (ELISA; inhibitor pre-incubated on mannan-bound rMBL, then 2% MBL defect serum) (recombinant MBL [3]): 0.92 nM

B3: C4BP^1−5:MAP-1 (other)
chain: NCGPPPTLSFAAPMDITLTETRFKTGTTLKYTCLPGYVRSHSTQTLTCNSDGEWVYNTFCIYKRCRHPGELRNGQVEIKTDLSFGSQIEFSCSEGFFLIGSTTSRCEVQDRGVGWSHPLPQCEIVKCKPPPDIRNGRHSGEENFYAYGFSVTYSCDPRFSLLGHASISCTVENETIGVWRPSPPTCEKITCRKPDVSHGEMVSGFGPIYNYKDTIVFKCQKGFVLRGSSVIHCDADSKWNPSPPACEPNSCINLPDIPHASWETYPRPTKEDVYVVGTVLRYRCHPGYKPTTDEPTTVICQKNLRWTPYQGCEAHTVELNNMFGQIQSPGYPDSYPSDSEVTWNITVPDGFRIKLYFMHFNLESSYLCEYDYVKVETEDQVLATFCGRETTDTEQTPGQEVVLSPGSFMSITFRSDFSNEERFTGFDAHYMAVDVDECKEREDEELSCDHYCHNYIGGYYCSCRFGYILHTDNRTCRVECSDNLFTQRTGVITSPDFPNPYPKSSECLYTIELEEGFMVNLQFEDIFDIEDHPEVPCPYDYIKIKVGPKVLGPFCGEKAPEPISTQSHSVLILFHSDNSGENRGWRLSYRAAGNECPELQPPVHGKIEPSQAKYFFKDQVLVSCDTGYKVLKDNVEMDTFQIECLKDGTWSNKIPTCKKNEIDLESELKSEQVTE
modifications: (Gly4Ser)3 linker between C4BP CCP1-5 and MAP-1 left out of the pieces; CCP1-5 limits from Sushi 1-5 features; MAP-1 (MAp44, NM_001031849.2) is the 380-aa MASP1 isoform, signal peptide 1-19 removed …
stoichiometry N (C4BP^1−5:MAP-1): 2 | Kd (recombinant CL-11; both partners purified): 5.49 nM

Next, values leading:

Kd (recombinant MBL [1]): 0.35 nM | Kd (recombinant CL-11): 1.97 nM | IC50 of C3 deposition (ELISA; inhibitor pre-incubated on mannan-bound rMBL, then 2% MBL defect serum) (recombinant MBL [2]): 0.36 nM | IC50 of C4 deposition (ELISA; inhibitor pre-incubated on mannan-bound rMBL, then 2% MBL defect serum) (recombinant MBL [2]): 0.45 nM | IC50 of TCC deposition (ELISA; inhibitor pre-incubated on mannan-bound rMBL, then 2% MBL defect serum) (recombinant MBL [2]): 0.17 nM | stoichiometry N (MAP-1:C4BP^1−5 (human)): 2
Molecule: MAP-1:C4BP^1−5 (from UniProt P48740-3 20-380)

IC50 of C3 deposition (ELISA; inhibitor pre-incubated on mannan-bound rMBL, then 2% MBL defect serum) (recombinant MBL [3]): 3.35 nM | IC50 of C4 deposition (ELISA; inhibitor pre-incubated on mannan-bound rMBL, then 2% MBL defect serum) (recombinant MBL [3]): 0.14 nM | IC50 of TCC deposition (ELISA; inhibitor pre-incubated on mannan-bound rMBL, then 2% MBL defect serum) (recombinant MBL [3]): 0.46 nM
B1: recombinant MAP-1 (natural protein, human, UniProt P48740-3 20-380, looked up)
chain: HTVELNNMFGQIQSPGYPDSYPSDSEVTWNITVPDGFRIKLYFMHFNLESSYLCEYDYVKVETEDQVLATFCGRETTDTEQTPGQEVVLSPGSFMSITFRSDFSNEERFTGFDAHYMAVDVDECKEREDEELSCDHYCHNYIGGYYCSCRFGYILHTDNRTCRVECSDNLFTQRTGVITSPDFPNPYPKSSECLYTIELEEGFMVNLQFEDIFDIEDHPEVPCPYDYIKIKVGPKVLGPFCGEKAPEPISTQSHSVLILFHSDNSGENRGWRLSYRAAGNECPELQPPVHGKIEPSQAKYFFKDQVLVSCDTGYKVLKDNVEMDTFQIECLKDGTWSNKIPTCKKNEIDLESELKSEQVTE
